The record followed here is the supplement of paper PMC7877785.

± gives the uncertainty stated by the source.

A short description of the data set: self-splicing fitness, log relative to wild type (ln ratio); higher = more splicing; Tetrahymena group I intron in knt gene, E. coli kanamycin selection, DiMSum; sequences stand for … in CUCUCU…GGAGGGAAAAGUUAUCAGGCAUGCACCUGGUAGCUAGUCUUUAAACCAAUAGAUUGCAUCGGUUUAAAAGGCAAGACCGUCAAAUUGCGGGAAAGGGGUCAACAGCCGUUCAGUACCAAGUCUCAGGGGAAACUUUGAGAUGGCCUUGCAAAGGGUAUGGUAAUAAGCUGACGGACAUGGUCCUAACCACGCAGCCAAGUCCUAAGUCAACAGAUCUUCUGUUGAUAUGGAUGCAGUUCACAGACUAAAUGUCGGUCGGGGAAGAUGUAUUCUUCUCAUAAGAUAUAGUCGGACCUCUCCUUAAUGGGAGCUAGCGGAUGAAGUGAUGCAACACUGGAGCCGCUGGGAACUAAUUUGUAUGCGAAAGUAUAUUGAUUAGUUUUGGAGUACUCGUGGUCG
Put shortly:
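Fitness was computed with DiMSum as the error-weighted combination of replicate fold changes, kanamycin versus none, each normalised to wild type. The library randomised all eight intron nucleotides of the P1ex region, with the intron placed in the knt kanamycin-resistance gene on pET-22b(+) in E. coli BL21(DE3). Six replicate transformations were grown overnight at 37°C or 30°C on LB agar with or without 25 μg/mL kanamycin, plus 100 μg/mL carbenicillin, 50 μM IPTG and 0.2% rhamnose. Pooled colonies were amplicon-sequenced on an Illumina HiSeq 2500.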

Regarding AAGCAGCAAUAUUACGGACG, the “self-splicing fitness (ln)” value reads like this: (30 °C) -2.62 ± 0.14; (37 °C) -0.565 ± 0.14.
On to UUCUAGCAAUAUUACGAUCG, for which the “self-splicing fitness (ln)” value (37 °C) was -2.02 ± 0.28.
For CCGUAGCAAUAUUACGCCGG, the “self-splicing fitness (ln)” value (30 °C) was -2.94 ± 0.49.
GAAUAGCAAUAUUACGCUUG: the “self-splicing fitness (ln)” value (30 °C) is -0.781 ± 0.11 and the “self-splicing fitness (ln)” value (37 °C) is -0.818 ± 0.14.
In the same order, the values of CACCAGCAAUAUUACGCAGA are -3.13 ± 0.13 and -2.57 ± 0.13.
In the same order, the values of GGCAAGCAAUAUUACGACAG are -3.74 ± 0.22 and -2.63 ± 0.24.
The matching figures for AGGAAGCAAUAUUACGAUGC: -2.26 ± 0.17 and -1.04 ± 0.22.
In the case of UAGCAGCAAUAUUACGCCGG, the “self-splicing fitness (ln)” value is -0.94 ± 0.096 (30 °C) and -0.0813 ± 0.15 (37 °C).
As for AUGUAGCAAUAUUACGAAGG, the “self-splicing fitness (ln)” value was -3.73 ± 0.34 (30 °C) and -2.61 ± 0.3 (37 °C).
The matching figures for UGUAAGCAAUAUUACGUGAG: -1.07 ± 0.047 and -0.92 ± 0.077.
The matching figures for UCGUAGCAAUAUUACGGACA: -0.671 ± 0.18 and -1.49 ± 0.26.
Turning to UUGGAGCAAUAUUACGGGCA, the “self-splicing fitness (ln)” value (37 °C) is -1.45 ± 0.35.
As to UAUAAGCAAUAUUACGAGGU, the “self-splicing fitness (ln)” value runs as follows: (30 °C) -3.53 ± 0.23; (37 °C) -2.54 ± 0.23.
AGCUAGCAAUAUUACGGAGG: the “self-splicing fitness (ln)” value (30 °C) was -3.54 ± 0.16 and the “self-splicing fitness (ln)” value (37 °C) was -1.33 ± 0.14.
For CUUGAGCAAUAUUACGUAAG, the “self-splicing fitness (ln)” value by setting is: (30 °C) -1.68 ± 0.1; (37 °C) -0.582 ± 0.13.
The matching figures for CAUCAGCAAUAUUACGGAUA: -0.862 ± 0.06 and 0.0386 ± 0.074.
In the same order, the values of UUAUAGCAAUAUUACGUACA are -1.06 ± 0.16 and -0.0284 ± 0.16.
With ACCAAGCAAUAUUACGCAAC, the “self-splicing fitness (ln)” value is, setting by setting: (30 °C) -3.4 ± 0.38; (37 °C) -1.01 ± 0.17.
AGGGAGCAAUAUUACGGGGA: the “self-splicing fitness (ln)” value (30 °C) was -3.29 ± 0.34 and the “self-splicing fitness (ln)” value (37 °C) was -2.64 ± 0.48.
Consider CAAUAGCAAUAUUACGGAAG, for which the “self-splicing fitness (ln)” value is -1.36 ± 0.074 (30 °C) and -0.459 ± 0.09 (37 °C).
The matching figures for GGGAAGCAAUAUUACGGUUA: -1.27 ± 0.11 and -0.726 ± 0.1.
In the same order, the values of GUGCAGCAAUAUUACGAUAG are -2.3 ± 0.22 and -2.21 ± 0.27.
As for UCGAAGCAAUAUUACGUAAC, the “self-splicing fitness (ln)” value is -2.1 ± 0.19 (30 °C) and -2.77 ± 0.38 (37 °C).
With GAACAGCAAUAUUACGCUAU, the “self-splicing fitness (ln)” value reads like this: (30 °C) -2.43 ± 0.1; (37 °C) -1.21 ± 0.11.
Turning to UAGAAGCAAUAUUACGAGGA, the “self-splicing fitness (ln)” value (30 °C) was -3.7 ± 0.2 and the “self-splicing fitness (ln)” value (37 °C) was -2.06 ± 0.15.
Turning to UACGAGCAAUAUUACGCUGU, the “self-splicing fitness (ln)” value runs as follows: (30 °C) -2.78 ± 0.28; (37 °C) -1.47 ± 0.39.
The matching figures for UGUCAGCAAUAUUACGCCGG: -2.61 ± 0.5 and -0.725 ± 0.36.
Consider AAAUAGCAAUAUUACGCUGC, for which the “self-splicing fitness (ln)” value is -2.73 ± 0.2 (30 °C) and -1.86 ± 0.41 (37 °C).
In the same order, the values of AGGAAGCAAUAUUACGACGC are -0.0969 ± 0.13 and -0.574 ± 0.14.
In the case of GCUCAGCAAUAUUACGGGGC, the “self-splicing fitness (ln)” value (30 °C) is -3.56 ± 0.2 and the “self-splicing fitness (ln)” value (37 °C) is -1.98 ± 0.2.
As to GGUAAGCAAUAUUACGGCCA, the “self-splicing fitness (ln)” value (30 °C) is -1.91 ± 0.39.
On to UGAGAGCAAUAUUACGCCUG, for which the “self-splicing fitness (ln)” value is, setting by setting: (30 °C) -2.46 ± 0.21; (37 °C) -1.91 ± 0.32.
With ACCUAGCAAUAUUACGGCCC, the “self-splicing fitness (ln)” value runs as follows: (30 °C) -0.812 ± 0.18; (37 °C) -0.39 ± 0.24.
The matching figures for UGGCAGCAAUAUUACGACCU: 0.0278 ± 0.12 and 0.0625 ± 0.12.
As for CGGAAGCAAUAUUACGAUAA, the “self-splicing fitness (ln)” value (37 °C) is -1.52 ± 0.25.
Take GCCAAGCAAUAUUACGCCGC: the “self-splicing fitness (ln)” value is -2.92 ± 0.31 (30 °C) and -1.02 ± 0.28 (37 °C).
Consider GGCCAGCAAUAUUACGAACC, for which the “self-splicing fitness (ln)” value was 0.576 ± 0.31 (30 °C) and -0.0497 ± 0.4 (37 °C).
Turning to CUUUAGCAAUAUUACGUCUA, the “self-splicing fitness (ln)” value (37 °C) is -2.26 ± 0.29.
Turning to CGGUAGCAAUAUUACGUGAG, the “self-splicing fitness (ln)” value (30 °C) was -0.593 ± 0.059 and the “self-splicing fitness (ln)” value (37 °C) was found to be 0.467 ± 0.092.
The matching figures for CCACAGCAAUAUUACGGUUA: -3.14 ± 0.15 and -2.7 ± 0.16.
The matching figures for CAUAAGCAAUAUUACGCCGG: -0.252 ± 0.13 and -0.546 ± 0.2.
Turning to CCUGAGCAAUAUUACGUUUG, the “self-splicing fitness (ln)” value runs as follows: (30 °C) -3.6 ± 0.22; (37 °C) -2.21 ± 0.18.
Turning to AGGCAGCAAUAUUACGAACC, the “self-splicing fitness (ln)” value was -0.0701 ± 0.18 (30 °C) and -1.03 ± 0.2 (37 °C).
The matching figures for GCCCAGCAAUAUUACGGCGG: -3.37 ± 0.16 and -1.93 ± 0.17.
The matching figures for AAUAAGCAAUAUUACGAACC: -1.33 ± 0.15 and -0.414 ± 0.18.
On to UGAUAGCAAUAUUACGGUGC, for which the “self-splicing fitness (ln)” value (30 °C) was -2.98 ± 0.35.
AAGCAGCAAUAUUACGAGUG: the “self-splicing fitness (ln)” value reads like this: (30 °C) -2.99 ± 0.1; (37 °C) -2.69 ± 0.11.
Consider UGCAAGCAAUAUUACGGUAU, for which the “self-splicing fitness (ln)” value is -3.81 ± 0.21 (30 °C) and -1.15 ± 0.14 (37 °C).
UAGUAGCAAUAUUACGCGCC: the “self-splicing fitness (ln)” value (30 °C) is -2.32 ± 0.28 and the “self-splicing fitness (ln)” value (37 °C) is -0.984 ± 0.23.
In the same order, the values of CGCGAGCAAUAUUACGCGGA are -2.15 ± 0.22 and -2.71 ± 0.31.
The matching figures for GAGUAGCAAUAUUACGACUG: 0.34 ± 0.24 and -0.96 ± 0.21.
The matching figures for CUGUAGCAAUAUUACGUCAA: -2.56 ± 0.19 and -1.85 ± 0.19.
With GGGCAGCAAUAUUACGUAGU, the “self-splicing fitness (ln)” value (30 °C) is -0.605 ± 0.086 and the “self-splicing fitness (ln)” value (37 °C) is -0.727 ± 0.11.
With UGCGAGCAAUAUUACGACGC, the “self-splicing fitness (ln)” value (30 °C) was -3.46 ± 0.25.
As to UCGCAGCAAUAUUACGUGCA, the “self-splicing fitness (ln)” value (30 °C) was -2.17 ± 0.074 and the “self-splicing fitness (ln)” value (37 °C) is -0.836 ± 0.071.
On to GCAUAGCAAUAUUACGUACU, for which the “self-splicing fitness (ln)” value by setting is: (30 °C) -0.89 ± 0.07; (37 °C) -0.056 ± 0.079.
The matching figures for CCAUAGCAAUAUUACGCGGA: -2.87 ± 0.16 and -2.26 ± 0.17.
In the same order, the values of ACAGAGCAAUAUUACGCGGG are -4.91 ± 0.46 and -3.54 ± 0.37.
The matching figures for GGAAAGCAAUAUUACGCGGG: -2.64 ± 0.18 and -1.5 ± 0.18.
As to AGACAGCAAUAUUACGAAGC, the “self-splicing fitness (ln)” value (37 °C) is -1.62 ± 0.28.
Take GGCAAGCAAUAUUACGUAAA: the “self-splicing fitness (ln)” value (30 °C) was -0.188 ± 0.089 and the “self-splicing fitness (ln)” value (37 °C) is -0.267 ± 0.1.
The matching figures for GAGUAGCAAUAUUACGGCGA: -0.645 ± 0.16 and -0.441 ± 0.2.
Consider AGGCAGCAAUAUUACGGCGC, for which the “self-splicing fitness (ln)” value (30 °C) was -1.13 ± 0.11 and the “self-splicing fitness (ln)” value (37 °C) stood at 0.292 ± 0.18.
